Key:
[1] = biological target: HIV-1 nucleocapsid protein (NC) (HIV-1 NL4-3) (UniProt P12493); assay: ITC; settings: ITC: 10 mM Tris-HCl pH 7.0, 140 mM KCl, 10 mM NaCl, 5 mM MgCl2, 5 mM TCEP, 30 °C; NC (120-240 µM) titrated into RNA (0.6-4 µM)
[2] = biological target: T1, HIV-1 nucleocapsid protein (NC) (HIV-1 NL4-3, UniProt P12493); assay: ITC; exothermic only, n=1.2±0.1; ITC: 10 mM Tris-HCl pH 7.0, 140 mM KCl, 10 mM NaCl, 5 mM MgCl2, 5 mM TCEP, 30 °C; NC (120-240 µM) titrated into RNA (0.6-4 µM); settings: protein: recombinant; tags: none stated; hairpin, blunt
[3] = biological target: T1, HIV-1 nucleocapsid protein (NC); assay: ITC; exothermic sites, n=6.6±0.2 per dimer; ITC: 10 mM Tris-HCl pH 7.0, 140 mM KCl, 10 mM NaCl, 5 mM MgCl2, 5 mM TCEP, 30 °C; NC (120-240 µM) titrated into RNA (0.6-4 µM); settings: protein: recombinant; tags: none stated; duplex dimer of 2 strands
[4] = biological target: T1, HIV-1 nucleocapsid protein (NC); assay: ITC; exothermic only, n=1.8±0.1; ITC: 10 mM Tris-HCl pH 7.0, 140 mM KCl, 10 mM NaCl, 5 mM MgCl2, 5 mM TCEP, 30 °C; NC (120-240 µM) titrated into RNA (0.6-4 µM); settings: protein: recombinant; tags: none stated; hairpin with single-stranded 3' GGAG region
[5] = biological target: T1, HIV-1 nucleocapsid protein (NC); assay: ITC; exothermic only, n=1.2±0.3; ITC: 10 mM Tris-HCl pH 7.0, 140 mM KCl, 10 mM NaCl, 5 mM MgCl2, 5 mM TCEP, 30 °C; NC (120-240 µM) titrated into RNA (0.6-4 µM); settings: protein: recombinant; tags: none stated; hairpin, blunt
[6] = biological target: T1, HIV-1 nucleocapsid protein (NC); assay: ITC; exothermic sites, n=2.8±0.3; ITC: 10 mM Tris-HCl pH 7.0, 140 mM KCl, 10 mM NaCl, 5 mM MgCl2, 5 mM TCEP, 30 °C; NC (120-240 µM) titrated into RNA (0.6-4 µM); settings: protein: recombinant; tags: none stated; hairpin, unpaired 5'-GA and AG-3' ends
[7] = biological target: T1, HIV-1 nucleocapsid protein (NC); assay: ITC; endothermic sites, n=2.3±0.2; ITC: 10 mM Tris-HCl pH 7.0, 140 mM KCl, 10 mM NaCl, 5 mM MgCl2, 5 mM TCEP, 30 °C; NC (120-240 µM) titrated into RNA (0.6-4 µM); settings: protein: recombinant; tags: none stated; hairpin, unpaired 5'-GA and AG-3' ends

TAR-PolyA
Kd [1]: 1320 nM

5'-L (5'-L344)
Kd [1]: 880 nM

5'-LΔPBS
Kd [1]: 760 nM

GGACUAGCGGAGGCUAGUCC (structured_RNA) [Ψ-apical loop]
Kd [2]: 320 ± 30 nM

GGCAGGACUCGGCUUGCUGAAGCGCGCACGGCAAGAGGCGAGGGGCC (structured_RNA) [DIS]
Kd [3]: 340 ± 30 nM

GACUAGCGGAGGCUAGAAGGAG (structured_RNA) [Ψ-fragment]
Kd [4]: 450 ± 30 nM

GGUUUUGACUAGCGGAGGCUAGAAGGAGCC (structured_RNA) [ΨHP-stable]
Kd [5]: 300 ± 150 nM

GAUUUUGACUAGCGGAGGCUAGAAGGAGAG (structured_RNA) [ΨHP]
Kd [6]: 1540 ± 240 nM
Kd [7]: 26 ± 21 nM
